Laboratory results: paper PMC9464592 (Nature, 2022)

Columns and labels:
Assay in all cases: cryo-EM structure
tag-free WDR59 = biological target: T1, tag-free WDR59 (human, UniProt Q6PJI9 1-974)
T1 sequence: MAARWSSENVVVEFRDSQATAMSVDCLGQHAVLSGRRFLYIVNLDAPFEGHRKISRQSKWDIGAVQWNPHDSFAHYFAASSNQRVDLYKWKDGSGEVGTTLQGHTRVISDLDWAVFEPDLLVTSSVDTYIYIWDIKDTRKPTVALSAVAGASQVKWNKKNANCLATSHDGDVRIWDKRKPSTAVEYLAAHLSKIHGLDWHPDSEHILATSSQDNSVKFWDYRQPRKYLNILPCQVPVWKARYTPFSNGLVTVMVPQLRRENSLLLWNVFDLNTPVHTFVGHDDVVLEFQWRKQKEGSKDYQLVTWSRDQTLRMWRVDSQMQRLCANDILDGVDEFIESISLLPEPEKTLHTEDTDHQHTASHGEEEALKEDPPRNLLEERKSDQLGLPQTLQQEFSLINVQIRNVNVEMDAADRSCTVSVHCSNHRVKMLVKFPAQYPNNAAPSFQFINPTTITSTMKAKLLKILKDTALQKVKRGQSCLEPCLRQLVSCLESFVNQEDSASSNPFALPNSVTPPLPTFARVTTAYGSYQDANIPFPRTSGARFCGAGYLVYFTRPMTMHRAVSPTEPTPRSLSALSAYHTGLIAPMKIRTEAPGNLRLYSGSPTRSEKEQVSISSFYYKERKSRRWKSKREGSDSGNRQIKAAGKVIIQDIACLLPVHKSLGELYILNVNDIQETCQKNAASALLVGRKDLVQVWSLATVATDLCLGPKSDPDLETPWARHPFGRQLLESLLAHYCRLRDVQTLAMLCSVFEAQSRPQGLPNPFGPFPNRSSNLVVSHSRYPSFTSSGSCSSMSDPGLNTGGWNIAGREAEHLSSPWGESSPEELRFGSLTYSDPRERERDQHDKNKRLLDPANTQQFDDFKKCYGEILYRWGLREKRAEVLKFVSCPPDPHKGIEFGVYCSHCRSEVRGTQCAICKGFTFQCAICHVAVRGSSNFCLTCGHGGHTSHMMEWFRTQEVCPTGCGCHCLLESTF

tag-free WDR24 = biological target: T2, tag-free WDR24 (human, UniProt Q96S15 1-790)
T2 sequence: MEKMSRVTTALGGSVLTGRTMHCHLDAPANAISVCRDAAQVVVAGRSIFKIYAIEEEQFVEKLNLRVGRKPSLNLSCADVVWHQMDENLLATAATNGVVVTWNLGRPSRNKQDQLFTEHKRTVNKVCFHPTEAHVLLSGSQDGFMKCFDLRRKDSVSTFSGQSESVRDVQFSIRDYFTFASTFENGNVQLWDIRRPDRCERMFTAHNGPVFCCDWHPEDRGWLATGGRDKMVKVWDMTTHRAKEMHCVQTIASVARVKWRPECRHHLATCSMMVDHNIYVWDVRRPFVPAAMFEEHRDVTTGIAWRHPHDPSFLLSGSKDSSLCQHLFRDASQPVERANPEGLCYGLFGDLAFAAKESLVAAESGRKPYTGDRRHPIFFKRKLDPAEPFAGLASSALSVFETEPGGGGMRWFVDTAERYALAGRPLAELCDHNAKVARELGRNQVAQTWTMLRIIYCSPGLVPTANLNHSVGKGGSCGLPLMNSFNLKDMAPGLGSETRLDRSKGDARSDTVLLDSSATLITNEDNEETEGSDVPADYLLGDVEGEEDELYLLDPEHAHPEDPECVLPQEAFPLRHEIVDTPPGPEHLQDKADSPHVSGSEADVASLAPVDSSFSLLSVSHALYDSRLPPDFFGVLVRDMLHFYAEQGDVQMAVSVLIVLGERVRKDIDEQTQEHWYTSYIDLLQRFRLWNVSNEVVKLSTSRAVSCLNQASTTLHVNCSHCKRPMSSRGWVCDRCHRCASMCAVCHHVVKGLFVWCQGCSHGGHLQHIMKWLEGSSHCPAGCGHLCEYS

[1] = biological target: T3, N-terminally Flag-tagged MIOS (human, UniProt Q9NXC5 1-875)
T3 sequence: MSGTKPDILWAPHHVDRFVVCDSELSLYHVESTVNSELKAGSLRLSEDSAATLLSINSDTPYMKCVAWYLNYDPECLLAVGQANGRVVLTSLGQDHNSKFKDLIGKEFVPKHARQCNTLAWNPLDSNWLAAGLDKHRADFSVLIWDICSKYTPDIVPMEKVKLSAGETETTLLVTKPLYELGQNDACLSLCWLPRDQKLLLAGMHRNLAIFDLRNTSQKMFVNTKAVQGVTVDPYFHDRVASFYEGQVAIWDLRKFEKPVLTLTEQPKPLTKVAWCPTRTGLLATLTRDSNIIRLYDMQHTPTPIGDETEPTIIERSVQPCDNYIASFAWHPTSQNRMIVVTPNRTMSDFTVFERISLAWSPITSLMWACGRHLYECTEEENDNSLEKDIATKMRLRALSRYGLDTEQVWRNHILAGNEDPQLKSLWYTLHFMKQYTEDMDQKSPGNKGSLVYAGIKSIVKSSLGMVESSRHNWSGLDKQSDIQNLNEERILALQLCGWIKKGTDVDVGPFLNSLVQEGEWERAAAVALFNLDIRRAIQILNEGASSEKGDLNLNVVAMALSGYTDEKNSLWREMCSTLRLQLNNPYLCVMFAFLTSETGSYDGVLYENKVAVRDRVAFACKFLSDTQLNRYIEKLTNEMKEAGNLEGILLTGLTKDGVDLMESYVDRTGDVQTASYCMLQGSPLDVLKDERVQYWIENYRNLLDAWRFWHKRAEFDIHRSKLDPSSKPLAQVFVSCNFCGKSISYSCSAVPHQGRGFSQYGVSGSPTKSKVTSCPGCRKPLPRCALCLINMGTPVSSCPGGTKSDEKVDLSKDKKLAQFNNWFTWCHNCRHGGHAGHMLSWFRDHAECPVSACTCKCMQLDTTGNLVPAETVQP

Measured: binding result

B1: tag-free SEC13 (natural protein, human)
chain: MVSVINTVDTSHEDMIHDAQMDYYGTRLATCSSDRSVKIFDVRNGGQILIADLRGHEGPVWQVAWAHPMYGNILASCSYDRKVIIWREENGTWEKSHEHAGHDSSVNSVCWAPHDYGLILACGSSDGAISLLTYTGEGQWEVKKINNAHTIGCNAVSWAPAVVPGSLIDHPSGQKPNYIKRFASGGCDNLIKLWKEEEDGQWKEEQKLEAHSDWVRDVAWAPSIGLPTSTIASCSQDGRVFIWTCDDASSNTWSPKLLHKFNDVVWHVSWSITANILAVSGGDNKVTLWKESVDGQWVCISDVNKGQGSVSASVTEGQQNEQ
binds: all assays above
